Results as given in patent EP1073741B1.
Several values for one entry are separate records, joined by “and”; a condition that tells them apart may be missing. Equal values may be shown once.

Columns and labels:
[1] = target: feline CD28, surface expressed on CD28-pSI transfected COS-7 cells (feline); assay: cell-cell adhesion assay; calcein-labelled CD80 COS-7 cells on CD28 COS-7 monolayer; microplate fluorimeter
[2] = target: feline CD80, surface expressed on feCD80/pSI transfected COS-7 cells (feline); assay: competitive cell-cell adhesion assay at 5x10^5 cells; huCTLA-4Ig pre-incubated with CD80 COS-7 cells, then added to CD28 COS-7 monolayer

Substance “feline CD80, surface expressed on feCD80/pSI transfected COS-7 cells (ligand)” has a fold fluorescence against wells with mock transfected adherent cells, at 1x10^6 cells [1] of 5 fold.
With “huCTLA-4Ig fusion protein (from UniProt P16410 38-161) (Fc fusion)” the fold residual fluorescence against wells inhibited with soluble CD80 (close to the mock transfected control) [2] was 2 fold and 3 fold.
